These results are taken from publication doi:10.1101/2021.07.27.453956 (bioRxiv, 2021).

First the molecules themselves.
B1: TwinStrep-MBP-Panx, full length, recombinant (SFiNX subunit) (natural protein)
chain: MEAPMKLEVKVENYVECGINEDEATPLREGTGETPPHAFACGVPMSGSGWCSDPEDGNLVHHSATPTSDEHLQPSLDTIEPKMEPKIKEDADNAMLDSLLADPFENNSPATLQTPADVKPNAMLDSVEQGSRSCELLPSEFSKRENLDDMDLFSLKAAKTLVPDEQQSFPQNDTPIDDPEAADLIAQKREILKMLEMTAENRKVKHKKKKHKKERSHRSNKHQEESRKRNHSNSSSDEGADDKNQFDCDYRGHKKYKNRRGSASSQNESSKERKLRDTELDYVPVRPDEHFIRPIKFSNLIERRPPQVEFNTVNLSKADKRSLAVARAELVLEQIQQKANKEEPPEFHMVDTICKLPVNESFRNQDCFENPSPICNNMNVVYKFNSTPGTRIDLSKWGLETVPEATKRLLRLLGIDVARLKELQSTVKPSQRILKLKKEQLEQGLAPTEEQETATLYKNAATQTERRTATRDAGTQVRLESKLNGAFWQNPHFDPMNLTQHQSNVMLALQEIYQTLPSATMAVKLSRALAPALAIIKGRQP
B2: His6-Ctp, recombinant (SFiNX subunit) (natural protein)
chain: MSDRKAVIKNADMSEEMQQDAVDCATQALEKYNIEKDIAAYIKKEFDKKYNPTWHCIVGRNFGSYVTHETRHFIYFYLGQVAILLFKSG

Assay [1] concerns the target Sov NTD (aa 14-90), C-terminal His tagged (D. melanogaster). The assay can be described thus: ITC.
Assay [2] addresses Nxf2–Nxt1 heterodimer, recombinant (SFiNX subunits) (Drosophila, UniProt Q9VV73;Q9V3H8). The assay can be described thus: co-purification of a recombinant complex.
The target in assay [3] is B1. The experiment in a line: co-purification of a recombinant complex.

Nxf2–Nxt1 heterodimer, recombinant (SFiNX subunits), sequence (Q9VV73 whole entry, one chain of several): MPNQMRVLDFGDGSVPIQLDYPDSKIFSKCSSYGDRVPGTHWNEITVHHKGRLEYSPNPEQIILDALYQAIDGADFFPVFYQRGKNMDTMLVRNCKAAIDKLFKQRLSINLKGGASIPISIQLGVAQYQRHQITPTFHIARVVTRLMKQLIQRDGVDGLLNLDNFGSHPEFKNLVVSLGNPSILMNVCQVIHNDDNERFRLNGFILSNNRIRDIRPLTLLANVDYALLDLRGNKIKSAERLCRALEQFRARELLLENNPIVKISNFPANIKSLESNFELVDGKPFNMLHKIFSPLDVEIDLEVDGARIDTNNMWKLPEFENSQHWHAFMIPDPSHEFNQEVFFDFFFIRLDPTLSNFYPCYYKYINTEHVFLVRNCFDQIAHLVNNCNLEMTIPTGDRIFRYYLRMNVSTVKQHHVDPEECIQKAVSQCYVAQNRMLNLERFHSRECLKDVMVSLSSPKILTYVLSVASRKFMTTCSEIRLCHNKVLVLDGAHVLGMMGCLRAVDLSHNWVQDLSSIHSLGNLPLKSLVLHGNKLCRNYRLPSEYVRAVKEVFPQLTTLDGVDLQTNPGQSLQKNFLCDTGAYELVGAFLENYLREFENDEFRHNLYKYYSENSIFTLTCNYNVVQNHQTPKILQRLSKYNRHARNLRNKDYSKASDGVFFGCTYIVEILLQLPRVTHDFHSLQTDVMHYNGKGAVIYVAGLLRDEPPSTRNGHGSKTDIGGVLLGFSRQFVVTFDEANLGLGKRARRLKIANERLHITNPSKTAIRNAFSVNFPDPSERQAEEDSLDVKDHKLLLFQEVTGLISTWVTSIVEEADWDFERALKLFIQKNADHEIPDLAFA

In assay [1], “His-SUMO tagged Panx LxxLL peptide (aa 82-108), wildtype (from UniProt Q9W2H9 82-108)” yielded a Kd of 0.87 µM. In other words, the sub-micromolar range.

As to B1, in assay [2], the binding result is recorded as “binds”.

B2: the binding result in assay [3] is “binds”.
